B1: Palmitoyltransferase ERF2 (Saccharomyces cerevisiae), Q06551 (parent)
chain: MALVSRRSTRSESTSITKEEHTGEGSLTKLFFRWLVTLEGDQDINDGKGYISLPNVSNYIFFLGGRFRTVKGAKPLWLGVLLAIVCPMVLFSIFEAHKLWHTQNGYKVLVIFFYYFWVITLASFIRTATSDPGVLPRNIHLSQLRNNYQIPQEYYNLITLPTHSSISKDITIKYCPSCRIWRPPRSSHCSTCNVCVMVHDHHCIWVNNCIGKRNYRFFLIFLLGAILSSVILLTNCAIHIARESGGPRDCPVAILLLCYAGLTLWYPAILFTYHIFMAGNQQTTREFLKGIGSKKNPVFHRVVKEENIYNKGSFLKNMGHLMLEPRGPSFVSARKPHEAGDWRFMDLSPAHSFEKIQKI
partner: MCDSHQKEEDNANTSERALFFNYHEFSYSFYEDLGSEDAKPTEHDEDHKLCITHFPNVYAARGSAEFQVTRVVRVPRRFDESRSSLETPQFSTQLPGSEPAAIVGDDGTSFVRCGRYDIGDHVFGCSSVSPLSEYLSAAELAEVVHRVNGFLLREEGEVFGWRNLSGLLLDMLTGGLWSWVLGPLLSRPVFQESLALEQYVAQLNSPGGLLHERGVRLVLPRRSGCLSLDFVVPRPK

Variants of: B1
Conditions: with erfd_yeast SHR5, P41912

effect of a mutation on the interaction | Variant
disrupting interaction strength | C189S
with no effect | H201A

From IntAct's records for PubMed 12193598
